Tests used:
cardiac Sca-1+ cells = test: Intravenous sPDNF into naïve mice, Sca-1 staining of heart sections; format: in vivo
MCP-1 and FKN = test: Single dose IV sPDNF into naive wild type C57BL/6 mice, MCP-1 and FKN by real time PCR; format: in vivo
Protocol: Wild type C57BL/6 mice were used in the results depicted in FIGS. 11A-11D. FIG. 11A is a graph depicting that a single dose of intravenous (IV) sPDNF increased MCP-1 and FKN transcripts in the heart in a pulse-like response. Groups of mice (2 per group) were injected with vehicle (Veh) or sPDNF (150 μg/mouse) and sacrificed at 3, 6, 9 and 12 hr post-injection, and cardiac MCP-1 and FKN transcripts were quantified by qPCR. Points represent fold change of the mean±SD relative to Veh injected mice; *P<0.05 and **P<0.01. Experiment repeated three times with similar results; liver also responded with similar pulselike kinetics. FIG. 11B is a graph depicting that organ distribution of MCP-1 increased following a single IV dose of sPDNF. Experimental design analogous to that summarized above. FIG. 11C is a graph showing that a single IV dose of sPDNF augments MCP-1 and FKN transcripts dose-dependently in the heart. FIG. 11D is a graph showing that a single IV dose of sPDNF augments MCP-1 and FKN transcripts dose-dependently in the liver. For the results depicted in FIGS. 11C and 11D, groups of three mice were injected with various doses of sPDNF, and heart and liver harvested 3 hr post-injection to quantify MCP-1 and FKN by qPCR. The results are plotted as a composite of three distinct experiments. […] For the results depicted in FIGS. 11E-11H, TLR-deficient MyD88^−/− mice (two per group) were injected IV with vehicle (PBS) or sPDNF (100 μg per mouse), sacrificed 3 hr post-injection. FIG. 11E is a graph showing MCP-1 expression in the heart of MyD88^−/− mice injected with sPDNF. FIG. 11F is a graph showing FKN expression in the heart of MyD88^−/− mice injected with sPDNF. FIG. 11G is a graph showing MCP-1 expression in the liver of MyD88^−/− mice injected with sPDNF. FIG. 11H is a graph showing FKN expression in the liver of MyD88^−/− mice injected with sPDNF.
Groups of naive wild type C57BL/6 mice were injected with vehicle (PBS) or a single dose of IV sPDNF. Mice were sacrificed at various timepoints post-injection, and heart MCP-1 and FKN expression measured by real time PCR. […] The agonist effect of IV sPDNF was screened in various organs using optimum time response (3 hr post-injection) using the same dose as in FIG. 11A. […] Organ distribution of MCP-1 expression in response to IV sPDNF was similar to that of FKN. Without being bound to a particular theory, the selective increase of MCP-1 and FKN in various organs may reflect the uneven expression of PDNF receptors TrkA and TrkC in neural and non-neural tissues (22, 50).
RNA was isolated from Trizol lysates of cell monolayers or liquid nitrogen snap frozen tissue samples dissociated by a Tissue-Tearor mechanical homogenizer (Biospec Products, Inc.). cDNA was synthesized using the Quantitect Reverse Transcription kit (Qiagen) according to manufacturer's instructions. Chemokine and chemokine receptor transcripts were amplified using specific primers and normalized to HPRT using SYBR Green (Qiagen), and, if needed, expressed relative to control-unstimulated cells. The following primers were used: […]
sPDNF was diluted in sterile endotoxin-free PBS (200 μl) and injected via the tail vein into 6-8 week old female C57BL/6 mice. Mice receiving single IV injections of 150 μg sPDNF per mouse were sacrificed at 3, 6, 9, and 12 hr post-injection, or various doses of sPDNF (100 ng-150 μg) and sacrificed 3 hr post-injection. Mice receiving multiple injections of sPDNF or PBS vehicle control (0, 3, and 24 hr, 100 μg per injection) were sacrificed 24 hr after the last injection (i.e., 48 hr after the first injection). Mice were perfused with PBS and organs harvested as described above.

[1] = single IV dose 150 μg/mouse, pulse-like kinetics
[2] = various single IV doses, 3 hr post-injection

B1: sPDNF: N-terminal short-form of T cruzi PDNF that contains Trk-binding sites, recombinant; amino acids 1-588 of SEQ ID NO: 2; JR-100 is the commercial name (protein, listed as Trypanosoma cruzi)
chain: MGKTVVVASRMFWLMFFVPLLLAICPSEPAYALAPGSSRVELFKRKNSTVPFEDKAGKVTERVVHSFRLPALVNVDGVMVAIADARYDTSNDNSLIDTVAKYSVDDGETWETQIAIKNSRVSSVSRVVDPTVIVKGNKLYVLVGSYYSSRSYWSSHGDARDWDILLAVGEVTKSTAGGKITASIKWGSPVSLKKFFPAEMEGMHTNQFLGGAGVAIVASNGNLVYPVQVTNKKKQVFSKIFYSEDDGKTWKFGKGRSDFGCSEPVALEWEGKLIINTRVDWKRRLVYESSDMEKPWVEAVGTVSRVWGPSPKSNQPGSQSSFTAVTIEGMRVMLFTHPLNFKGRWLRDRLNLWLTDNQRIYNVGQVSIGDENSAYSSVLYKDDKLYCLHEINTDEVYSLVFARLVGELRIIKSVLRSWKNWDSHLSSICTPADPAASSSESGCGPAVTTVGLVGFLSGNASQNVWEDAYRCVNASTANAERVRNGLKFAGVGGGALWPVSQQGQNQRYRFANHAFTLVASVTIHEAPRAASPLLGASLDSSGGKKLLGLSYDEKHQWQPIYGSTPVTPTGSWETGKRYHLVLTMANKI
- cardiac Sca-1+ cells (cardiac Sca-1+ cells): expanded
- cardiac FKN transcripts (MCP-1 and FKN; [1]): significantly increased
- cardiac MCP-1 transcripts (MCP-1 and FKN; [1]): significantly increased
- expression of MCP-1 in the heart, liver and spleen (MCP-1 and FKN; single IV dose, 3 hr post-injection, liver most robust): increased expression
- time of peak of cardiac FKN (MCP-1 and FKN; single IV dose, post-injection): 3 h
- time of peak of cardiac MCP-1 (MCP-1 and FKN; single IV dose, post-injection): 3 h
- increased expression of FKN in the heart (MCP-1 and FKN; [2]): dose-dependent
- increased expression of MCP-1 in the heart (MCP-1 and FKN; [2]): dose-dependent
- increased expression of MCP-1 in the liver (MCP-1 and FKN; [2]): dose-dependent
